In publication PMC314469, “Protein Interaction Networks by Proteome Peptide Scanning” (PLoS Biology, 2004):

Molecular target: Sho1 SH3 (SHO1_YEAST), P40073
Test: SPOT array

Sho1 SH3 (SHO1_YEAST), P40073, sequence (P40073 295-366): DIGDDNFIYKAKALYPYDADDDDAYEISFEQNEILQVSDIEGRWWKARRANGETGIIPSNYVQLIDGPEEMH

| Binder | normalised SPOT signal, Boehringer light units (BLU); mean over the file's lines of this peptide |
| --- | --- |
| RLIPTSPQKTNINT [14-27 Hypothetical ORF] | 85.2 |
| SDKPLTPTKTSSTL [341-354 DNA Damage Inducible; binds to T- and V- snare complexes] | 135 |
| RPPPLTPEKNLYLT [258-271 Putative participant in 3' mRNA processing] | 117 |
| SASPYRPQRLPAKF [13-26 Hypothetical ORF] | 118 |
| RGTPANPGRVATLI [47-60 Hypothetical ORF] | 123 |
| SGKPLFPGRDYHHQ [221-234 MAP protein kinase homolog involved in pheromone signal transduction] | 103 |
| SASPTLPTRRSRRL [62-75 Hypothetical ORF] | 212 |
| QLTPLLPDKYFDSA [693-706 putative transcription factor] | 57.6 |
| QSNPTSPTKQTFTI [600-613 BEM1-binding protein] | 39.1 |
| SAFPQSPIRAYGST [1382-1395 negative regulator of early meiotic genes] | 75.1 |
| RPSPWLPSKPNSYH | 1300 |
| QRHPKSPVKKPMTS [878-891 involved in bud site selection] | 190 |
| SDLPSSPIKAPNVE [232-245 DNA replication helicase] | 191 |
| QSQPPRPPRPAANL [24-37 Hypothetical ORF] | 128 |
| SEEPTSPTRQVNPE [443-456 Putative participant in 3' mRNA processing] | 157 |
| QYIPPPPPKYINSK [482-495 Ume6p is a C6 zinc finger URS1-binding protein.] | 304 |
| QTSPGQPRKGQNGS [427-440 soluble tyrosine-specific protein phosphatase] | 61.3 |
| QGLPASPSRAALRY [55-68 chitin synthase 2] | 140 |
| RNEPVKPFRNIDLK [29-42 delta-1-pyrroline-5-carboxylate dehydrogenase] | 87.5 |
| RRGPGRPRKDASTS [204-217 nuclear protein involved in silencing] | 998 |
| SALPILPKREVVTR [19-32 soluble cell wall protein] | 141 |

| Binder | normalised SPOT signal, Boehringer light units (BLU); mean over the file's lines of this peptide |
| --- | --- |
| QKTPPSPAKPKQKT [26-39 Component of the exocyst complex; homolog in rat brain called rExo84.] | 203 |
| RVHPEPPNKPGITT [407-420 Hypothetical ORF] | 149 |
| RAVPILPPRNNVEP [543-556 Hypothetical ORF] | 126 |
| QLLPNVPDKVLVPG [391-404 binds to single-stranded TG1-3 telomere G-tails] | 46.5 |
| RKRPAPPKKKAPST [82-95 ISWI One Complex] | 208 |
| RIPPTVPSKIIDVV [7-20 Hypothetical ORF] | 521 |
| QIFPKKPLRRTVMS [166-179 involved in ion homeostasis] | 534 |
| QNTPPLPPKPKSPH [175-188 homologous to mouse and human Tsg101 tumor susceptibility genes] | 8430 |
| RPTPRKPSRMATDH [8-21 Transmembrane osmosensor] | 1440 |
| SELPKSPYRQKPTQ [124-137 " involved in meiosis, nuclear division and spore formation"] | 200 |
| SGKPKKPYRRWTPE [666-679 negative regulator of prp genes] | 233 |
| QPAPRIPSKDAIIS [100-113 transcription factor] | 498 |
| SHQPYLPIKNKNIV [329-342 Hypothetical ORF] | 65.5 |
| RRKPHSPNKKKPKE [12-25 Hypothetical ORF] | 173 |
| SHLPLIPEKIKSLK [203-216 similar to E. coli DinB and S. cerevisiae REV1] | 175 |
| QLFPVRPVRVRHED [198-211 " RNA polymerase III (C) subunit, homologus to human BN51 protein"] | 95.2 |
| QGQPLPPPRGQVIL [287-300 Hypothetical ORF] | 159 |
| RERPLEPPRKPMAS | 554 |
| QYYPEEPTKPTVKT [6-19 gamma-aminobutyrate (GABA) transaminase (4-aminobutyrate aminotransferase)] | 111 |
| QGYPRQPQRPQRYH [27-40 "heat shock protein similar to HSP26, involved in cytoskeleton assembly"] | 195 |
| RPNPTQPRKPLDSK [776-789 vacuolar import degradation] | 99.9 |
